Patent US20110286916A1 (published 2011)
Where two headings read alike, the source gives them in different places.

B1: WC-75 (antibody, human IgG1, lambda, V domains shown)
VH: GVQLVQSGGGLVQPGGSLRLSCAASGFTFDDYAMHWVRQAPGKGLEWVSSISWHSRTIAYADSVKGRFSISRDNAKNSLYLQMNSLRPEDTAVYYCAKASYLSTSSSLDYWGRGTLVTVSS
VL: QSVLTQPGSVSGSPGQSITISCTGTSSDVGGYNYVSWYQQHPGKAPKLMIYEGSKRPSGVSNRFSGSKSGNTASLTISGLQAEDEADYYCSSYTTRSTRVFGGGTKLTVLQ
B2: WC-629 (antibody, human IgG1, lambda, V domains shown)
VH: EVQLVQSGAEVKKPGSSVKVSCKASGGTLSSYTVSWLRQAPGQGLEWMGRIIPILDRANYAQKFQGRVTITADKSTSTAYMELNSLRSDDTAVYYCARSIGAAGDGVWFDPWGQGTMVTVSS
VL: QAVLTQPSSVSGAPGQRVTISCTGSSSNIGAGYDVHWYQQLPGTAPKLLIFDNKNRPSGVPDRFSGSNSGTSASLAITGLQAEDEAEYYCQSYDNNLSGRVFGGGTKLTVLQ
B3: WC-613 (antibody, human IgG1, lambda, V domains shown)
VH: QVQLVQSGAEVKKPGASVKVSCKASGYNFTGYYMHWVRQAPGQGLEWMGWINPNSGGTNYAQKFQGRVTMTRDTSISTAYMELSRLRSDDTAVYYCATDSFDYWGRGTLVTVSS
VL: SYELTQPPSASGTPGQRVTISCSGSYSNIGSNYVYWYQQLPGTAPKLLIYTNNQRPSGVPDRFSGSKSGTSASLVISGLRSDDEGDYYCAAWDDSVSVLLFGGGTKVTVLQ
notes: also called N1wc613; hN1wc-613
B4: S3-009 (antibody, human IgG1, lambda, V domains shown)
VH: EVQLVQSGAEVKKPGASVKVSCKASGYNFTGYYMHWVRQAPGQGLEWMGWINPNSGGTNYAQKFQGRVTMTRDTSISTAYMELSRLRSDDTAVYYCATDSFDYWGQGTMVTVSS
VL: SYVLTQPPSVSEAPRQRVTISCSGSSSNIGNNAVSWYQQLPGKAPKTLIYYDDLLSSGVSDRFSGSRSGTSASLAISGLQSEDEADYYCAAWDDSLNGVVFGGGTKLTVLQ
notes: also called hN1S3-009; HN1S3-9
B5: S3-011 (antibody, human IgG1, lambda, V domains shown)
VH: QVQLVQSGPEVKKPGASVKVSCKASGYNFTGYYMHWVRQAPGQGLEWMGWINPNSGGTNYAQKFQGRVTMTRDTSISTAYMELSRLRSDDTAVYYCATDSFDYWGRGTMVTVSS
VL: not shown
notes: also called hN1S3-011
B6: hN1wc-179 (antibody, human IgG1, lambda, V domains shown)
VH: EVQLVQSGAEVKKPGASVKVSCKASGYNFTGYYMHWVRQAPGQGLEWMGWINPNSGGTNYAQKFQGRVTMTRDTSISTAYMELSRLRSDDTAVYYCATDSFDYWGQGTMVTVSS
VL: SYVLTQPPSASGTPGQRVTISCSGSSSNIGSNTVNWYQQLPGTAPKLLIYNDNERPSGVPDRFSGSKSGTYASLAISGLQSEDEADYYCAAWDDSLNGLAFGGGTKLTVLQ
B7: FL-SKNAS-C2-384 (antibody, human IgG1, lambda, V domains shown)
VH: EVQLVQSGAEVKKPGSSVKVSCKASGGTLSSSAISWVRQAPGEGLEWMGGIIPMFDSTNYAQKFQGRVTITADESTSTAFMELSSLRSDDTAVYYCGRDPYYDRLSGGGYMDVWGQGTLVTVSS
VL: SYVLTQPPSVSGALRQTATVTCTGNSSNVGNQGAAWLRQHQGRPPKLLSYRNNDRPSGVSQRFSASTSGNTASLTITGLQSEDEADYFCSAWDSSRSGWVFGGGTKLTVLG
B8: A673-C2-110 (antibody, human IgG1, lambda, V domains shown)
VH: QVQLVQSGTEVKKPGASVRVSCKPSADTFTSYYVHWVRQAPGQGLEWMGTINPTGTYTRYAQQFQGRVTVTRDTSTSSVYMELSSLRSEDSAVYYCARDVRPYTAMYSFDNWGRGTTVTVSS
VL: SYVLTQPPSVSVSPGQTATITCSGDALPKQYANWYQQKPGQAPVLMIYKDSDRPSGIPERFSGSSSGTKATLTISGVQAEDEADYYCQSADNSGTNYVFGTGTKLTVLG
B9: HN1S3-133 (antibody, human IgG1, lambda, V domains shown)
VH: QVQLVQSGPEVKKPGTSVKVSCKASGFTFTSSAVQWVRQARGQRLEWIGWIVVGSGNTNYAQKFQERVTITRDMSTSTAYMELSSLRSEDTAVYYCVADTVYWGQGTLVTVSS
VL: QSVLTQPPSVSEAPRQRVTISCSGSSSNIGNNAVNWYQQLPGEAPKLLIYYDDLLPSGVSDRFSGSKSGSSASLAISGLQAEDEADYYCATWDDSLNAWVFGGGTKVTVLQ
B10: HN1S3-147 (antibody, human IgG1, lambda, V domains shown)
VH: QVQLVQSGPEVKKPGTSVKVSCKASGFTFTSSAVQWVRQARGQRLEWIGWIVVGSGNTNYAQKFQERVTITRDMSTSTAYMELSSLRSEDTAVYYCVADTVYWGKGTLVTVSS
VL: not shown
B11: N1wc535 (scFv, V domains shown)
VH: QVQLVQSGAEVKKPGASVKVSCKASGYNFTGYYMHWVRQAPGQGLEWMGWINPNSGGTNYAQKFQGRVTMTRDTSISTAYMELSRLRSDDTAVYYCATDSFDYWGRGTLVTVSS
VL: QSVLTQPPSASGTPGQRVTLSCSGSSSNIGSNTVNWYQQLPGTAPKVLIYSDNQRPSGVPDRFSGSKSGTSASLAISGLQSDDEAVYYCAGWDDSLNAYLFGTGTKVTVL
notes: phage scFv
B12: N1wc570 (scFv, V domains shown)
VH: QVQLVQSGPEVKKPGTSVKVSCKASGFTFTSSAVQWVRQARGQRLEWIGWIVVGSGNTNYAQKFQERVTITRDMSTSTAYMELSSLRSEDTAVYYCVADTVYWGRGTMVTVSS
VL: QSVLTQPPSASATPGQTVTISCSGSTSNIGNNNVNWYQQVPGTAPKLLMYSNNQRPSGVPDRFSGSRSGTSASLAITALQSEDEADYYCATWDDSLSAWVFGGGTKVTVL
notes: phage scFv
B13: N1wc586 (scFv, V domains shown)
VH: QVQLVQSGPEVKKPGASVKVSCKAAGYTFPDFYMHWVRQAPGKGPEWVGWINSNSGSTRLAERLEGRVTLTRDTSISTAYMELTSLTSDDTAVYYCARGAYDYVWGTSRYVADAFDIWGQGTLVTVSP
VL: DIVMTQSPSTLSASVGDRVTITCRASQGISSWLAWYQQKPGRAPKVLIYKASTLESGVPSRFSGSGSGTDFTLTISSLQPEDFATYYCQQSYSTPWTFGQGTKLEIK
notes: phage scFv
B14: N1wc621 (scFv, V domains shown)
VH: EVQLVQSGAEVKKPGASVKVSCKASGYTFTGYYIHWVRQAPGQGLEWMGWISPNSGVTNYAQRFQGRVTMSRDTSITTAYMELNRLGSDDTAVYYCAREGREDGVLFDYWGRGTLVTVSS
VL: QAVLTQPSSVSGAPGQTVTISCAGSSSNLGAGYDAHWYQHLPGAVPRLLIYNNSKRPSGVPDRFSASKSGSSASLAITGLQPEDEADYYCQTYDTRLSGSMLFGGGTKVTVL
notes: phage scFv
B15: N1wc45 (scFv, V domains shown)
VH: EVQLVQSGAEVKKPGASVKVSCKASGYSFRSYGIVWVRQAPGQGLEWMGWISAYNGNTNYAQKLQGRVTMTTDTSTSTAYMELRSLRSDDTAVYYCVRGDRHYDILTGYSPVWFDPWGKGTTVTVSS
VL: SSELTQDPAVSVALGQTVRITCQGDSLRSYYASWYQQKPGQAPVLVIYGKNNRPSGIPDRFSGSSSGNTASLTITGAQAEDEADYYCNSRDSSGNHVVFGGGTKLTVL
notes: phage scFv
B16: N1wc39 (scFv, V domains shown)
VH: EVQLVQSGAEVKKPGASVKLSCKTSGHTFTNYAFHWLRQAPGQRPEWLGWINADNGNTKYSQSFQDRVTITRDISANTAYMEMSRLKSEDTAYYYCARDPWSGVLDHWGKGTLVTVSS
VL: DIQLTQSPSSVSASIGDTVTITCRASQNINKWLAWYQQKPGKAPYLLISTASNLQSGVPSRFSGTGSGTAFTLTISRVQPEDFANYYCQQAFSFPITFGQGTRLEIK
notes: phage scFv

Experiments:
[1] = target: T1, human Notch3-Gal4 chimeric receptor on U2OS FlpIn TREx cells (human, UniProt Q9UM47 40-2321); assay: cell-based or functional assay
[2] = target: T2, human full-length Notch1 with C-terminal FLAG tag, stably expressed on 293 FlpIn (TREx) cells (human, UniProt P46531 19-2555); assay: FACS, hN1 293 cells, MFI grade (++ 101-500)
T2 construct: tetracycline/doxycycline-induced expression from pcDNA5/FRT/TO-HN1+FLAG; also called hN1; 293_N1
Description: Notch 293 FlpIn (TREx) cells were treated with dox (2 ug/ml) for two days to induce Notch expression before collecting them for FACS surface expression analysis. The cells were harvested from tissue culture flasks using Trypsin for 15 min, centrifuged at 1200 rpm for 10 minutes and resuspended in 2 ml PBS with 2% fetal bovine serum (2% FBS/PBS). The cells were counted, adjusted to 10⁷ cells/ml and 0.1 ml of cells was incubated with 1 ug of each Mab for 40 minutes at 4° C. The cells were washed, resuspended in 0.1 ml 2% FBS/PBS and incubated with 1 ug R-PE-conjugated goat anti-human Ig (Jackson ImmunoResearch) for 30 minutes at 4° C. Cells were washed, resuspended in 0.3 ml PBS with 10% formaldehyde and analyzed on a FACSCalibur (Becton Dickinson, Mt View, Calif.).

[3] = target: T3, Notch1 extracellular fragment (amino acid 19-526) Fc fusion protein, R&D Systems 3647-TK (human, UniProt P46531 19-526); assay: BIAcore SPR, Notch1/Fc on CM5, Mab analyte, 1:1 binding
T3 construct: bought protein; also called Notch1/Fc; Notch1-ECD Fc fusion protein; not shown: Fc of the bought fusion protein
Description: All experiments were performed at 25° C. at a flow rate of 40 μl/min. […] FC1 was used as the reference cell. Specific signals were the results of differences of signals obtained on FC2 versus FC1. […] The dissociation phase of the analyte was monitored over a period of time ranging 10-30 minutes. Running buffer was also injected under the same conditions as a reference.
Equilibrium dissociation constant (KD) was calculated by the ratio between dissociation (koff) and association (kon) rate constants.

[4] = target: T1, human Notch3-Gal4 chimeric receptor on …; assay: cell-based or functional assay; remark: listed apart in the source
[5] = target: T4, human full-length Notch3 with C-terminal FLAG tag, stably expressed on 293 FlpIn (TREx) cells (human, UniProt Q9UM47 40-2321); assay: FACS, phage scFv
T4 construct: whole, on cells; made by the same strategy as the Notch1 line; also called 293-N3; hN3

[6] = target: T2, human full-length Notch1 with …; assay: FACS, phage scFv

Binder	hN3, inhibition of Luc activity at [166 nM] Mab [1] [%]	Kd [3] [nM]	koff [3] [s⁻¹]	kon [3] [M⁻¹ s⁻¹]	binding result [5]	binding result [6]	also measured
B1	< 10	–	–	–	–	–	–
B2	< 10	–	–	–	–	–	–
B3	< 10	1.09	0.000258	237000	–	–	MFI [2]: 101 to 500 mfi
B4	< 20	5.23	0.00268	513000	–	–	MFI [2]: 101 to 500 mfi
B5	< 10	–	–	–	–	–	MFI [2]: 101 to 500 mfi
B6	–	7.36	0.00363	493000	–	–	–
B7	–	–	–	–	–	–	hN3, inhibition of Luc activity at [166 nM] Mab [4]: < 5%
B8	–	–	–	–	–	–	hN3, inhibition of Luc activity at [166 nM] Mab [4]: < 10%
B9	–	0.649	0.0004	616000	–	–	–
B10	–	0.269	0.000285	1.06e+06	–	–	–
B11	–	–	–	–	binds	binds	–
B12	–	–	–	–	binds	binds	–
B13	–	–	–	–	binds	binds	–
B14	–	–	–	–	binds	binds	–
B15	–	–	–	–	binds	binds	–
B16	–	–	–	–	binds	binds	–
